Test results taken from PMC10460880, “Cathepsin K‐Activated Probe for Fluoro‐Photoacoustic Imaging of Early Osteolytic Metastasis” (Advanced Science, 2023).

How the values were obtained:
[1] = Fluorescence quantum yield and molar extinction coefficient; type: physicochemical; details: MES buffer 50 mM pH 6.0, 0.1% DMSO
Procedure: Determination of the fluorescence quantum yield and molar extinction coefficient.
Fluorescence quantum yield (Φf) was determined by using ICG (Φf = 0.13 in DMSO) as a fluorescence standard. The quantum yield was calculated using the following equation: ΦF(X) = ΦF(S) (ASFX / AXFS) (nX / nS)2, Where ΦF is the fluorescence quantum yield, A is the absorbance at the excitation wavelength, F is the area under the corrected emission curve, and n is the refractive index of the solvents used. Subscripts S and X refer to the standard and to the unknown, respectively. The excitation wavelength was at 690 nm while keeping the absorption below 0.05. To calculate the molar extinction coefficient (ε), the absorption at 690 nm of different concentrations of the CTSK-APPA before or after CTSK cleavage (0, 0.5, 1, 2, 5, 10 μM) was measured. According to the Lambert-Beer law, the extinction coefficient was the slope of the fitted curve between concentration and absorption. Both fluorescence quantum yield and extinction coefficient were measured in MES buffer (50 mM, pH 6.0) containing 0.1% DMSO. […]

[2] = Hydroxyapatite (HA) adsorption assay (in vitro bone binding); details: probe 10 μM, HA 10 mg/mL, 37 °C, fluorescence of precipitate
Procedure: In Vitro bone-binding and CTSK activation assay. Hydroxyapatite (HA) was used as a substitute for bone in vitro to evaluate the bone-binding ability of CTSK-APPA and CTSK-APP. CTSK-APPA or CTSK-APP (10 μM) was mildly stirred with HA (10 mg/mL) at 37 °C for different times (0, 10, 30, 60, and 120 min). The mixture was centrifugated at 4000 g for 5 min and then washed with a 10-fold excess of PBS (1×) three times. The efficiency of HA binding was determined from the fluorescence intensities of the precipitation according to the equation: (F – Fblank)/(F0 – Fblank)*100%, where F represents the fluorescence intensity of the precipitation incubated with HA for a determined time, and Fblank represents the blank fluorescence intensity. […]

cathepsin K (CTSK) [3] = biological target: T1, cathepsin K (CTSK) (Homo sapiens, UniProt P43235); experiment: Kinetic assay (Michaelis-Menten) of probe cleavage by CTSK; type: biochemical
T1 sequence (P43235 115-329): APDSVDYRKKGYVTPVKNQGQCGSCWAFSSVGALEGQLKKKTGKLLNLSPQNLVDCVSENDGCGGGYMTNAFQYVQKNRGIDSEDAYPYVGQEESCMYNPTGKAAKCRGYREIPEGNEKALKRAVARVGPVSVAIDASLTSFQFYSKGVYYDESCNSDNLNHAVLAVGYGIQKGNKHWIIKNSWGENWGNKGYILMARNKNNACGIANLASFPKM
Procedure: (§1) In vitro analysis of cathepsin K (CTSK) activation, selectivity, and sensitivity studies.
Probe CTSK-APPA, D-CTSK-APPA, or CTSK-APP (10 μM) was incubated with CTSK in MES buffer (50 mM, pH 6.0) containing 0.1% DMSO, 2 mM ethylene diamine tetraacetic acid (EDTA), 4 mM dithiothreitol (DTT) and 0.15% chondroitin sulfate (CS) at 37 °C for 1 h. After incubation at the indicated time, UV-Vis spectra, fluorescence spectra, fluorescence images, and PA images of the solutions were recorded. […]
PA images were captured by using a MSOT scanner with
Kinetic assay. Different concentrations of CTSK-APPA or CTSK-APP (1, 2, 5, 10, 20, or 50 μM) were incubated with CTSK (100 ng/mL) in MES buffer containing 0.1% DMSO, 2mM EDTA, 4mM DTT, and 0.15% CS at 37 °C for 5 min. Fluorescence intensities of solution were measured for quantification analyses by a microplate reader (BioTek, Synergy 2) with excitation at 690 nm and emission at 720 nm. The kinetic parameters were calculated according to the Michaelis-Menten equation shown below: V = Vmax×[S]/(Km + [S]), where V is initial velocity, and [S] is substrate concentration.
(1 picture or pasted object on this page, not shown here)

cathepsin K (CTSK) [4] = biological target: T1, cathepsin K (CTSK); experiment: In vitro CTSK activation of probes (UV-vis, fluorescence, PA); type: biochemical
Procedure: radiography (DR), and fluorescence imaging were carried out by using an IVIS Spectrum imaging system (PerkinElmer). Photoacoustic (PA) imaging was obtained on a multispectral optoacoustic tomography (MSOT) scanner (iThera Medical). Computed tomography (CT) imaging was recorded on single-photon emission computed tomography imaging system (Olympus). Magnetic resonance (MR) imaging was recorded on a preclinical magnetic resonance solution system (MR solutions).
as §1
Probe CTSK-APPA, D-CTSK-APPA, or CTSK-APP (10 μM) was incubated with CTSK in MES buffer (50 mM, pH 6.0) containing 0.1% DMSO, 2 mM ethylene diamine tetraacetic acid (EDTA), 4 mM dithiothreitol (DTT) and 0.15% chondroitin sulfate (CS) at 37 °C for 1 h. After incubation at the indicated time, UV-Vis spectra, fluorescence spectra, fluorescence images, and PA images of the solutions were recorded. Probe CyP (10 μM) incubated with CTSK (200 ng/mL) for 1 h was further analyzed by HPLC. For selectivity study, CTSK-APPA (10 μM) in a 96-well plate was incubated with CTSK (100 ng/mL), CTSB (100 ng/mL), FAP-α (9×10-4 U/mL), Caspase-3 (100 ng/mL), APN (100 ng/mL), GGT (0.1 U/mL), ALP (0.1 U/mL), ACE (1×10-3 U/mL), and trypsin (10 U/L) at […] for 1 h. […] The limit of detection was determined from emission intensities according to the equation: 3δ/k, where δ represents the standard deviation of blank, and k represents the slope of the fitting plot of emission intensities. Fluorescence images were captured by using the IVIS Spectrum imaging system with excitation at 660 ± 10 nm and emission at 710 ± 10 nm. […]
Kinetic assay. […] Fluorescence intensities of solution were measured for quantification analyses by a microplate reader (BioTek, Synergy 2) with excitation at 690 nm and emission at 720 nm. The kinetic parameters were calculated according to the Michaelis-Menten equation shown below: V = Vmax×[S]/(Km + [S]), where V is initial velocity, and [S] is substrate concentration. […]

**Q.** Which “fluorescence quantum yield (Φf) after CTSK cleavage” value ([1]; ICG standard, Ex 690 nm) does the source give for Cbz‐Leu‐Arg‐OH [CTSK-APPA] here?
**A.** 3.5%

**Q.** What about the “fluorescence quantum yield (Φf) before CTSK cleavage” value ([1]; ICG standard, Ex 690 nm) of the same substance?
**A.** 0.5%

**Q.** What about the “molar extinction coefficient ε after CTSK cleavage” value ([1]; absorption at 690 nm, 0-10 μM) of the same substance?
**A.** 50230 M⁻¹ cm⁻¹

**Q.** What about the “molar extinction coefficient ε before CTSK cleavage” value ([1]; absorption at 690 nm, 0-10 μM) of the same substance?
**A.** 28580 M⁻¹ cm⁻¹

**Q.** And the “HA-binding efficiency after 30 min” value [2]?
**A.** approximately 96%

**Q.** And the “catalytic efficiency (kcat/Km)” value (cathepsin K (CTSK) [3]; from Km and kcat)?
**A.** 890000 M⁻¹ s⁻¹

**Q.** What about the Km (cathepsin K (CTSK) [3]; probe 1-50 μM, CTSK 100 ng/mL, MES buffer, 37 °C, 5 min, Ex 690/Em 720 nm, n = 3, read-out: Michaelis–Menten constant (Km)) of the same substance?
**A.** 22.9 µM

**Q.** What about the “catalytic rate constant (kcat)” value (cathepsin K (CTSK) [3]; probe 1-50 μM, CTSK 100 ng/mL, MES buffer, 37 °C, 5 min, n = 3) of the same substance?
**A.** 20.4 s⁻¹

**Q.** And the “incubation time until absorption at 690 nm and fluorescence at 720 nm reach plateau” value (cathepsin K (CTSK) [4]; incubation with CTSK)?
**A.** ≈ 60 min

**Q.** And the “fluorescence on/off ratio at 720 nm” value (cathepsin K (CTSK) [4]; probe 10 μM + CTSK, MES buffer 50 mM pH 6.0, 0.1% DMSO, 37 °C, 1 h, Ex 690 nm, n = 3)?
**A.** ~20.9

**Q.** What about the “enhancement of photoacoustic signal” value (cathepsin K (CTSK) [4]; probe 10 μM + CTSK, MES buffer pH 6.0, 37 °C, 1 h, irradiated at 700 nm, n = 3) of the same substance?
**A.** 5.2 fold
